# Patent US20240252670A1, “ANTIBODY DRUG CONJUGATE, PREPARATION METHOD THEREFOR AND APPLICATION THEREOF” (TSINGHUA UNIVERSITY, priority 2021, published 2024)
# Target: T1, PD-L1 on MC38 cell surfaces (Mus musculus, UniProt Q9EP73)
# T1 construct: endogenous in cells; host or cells: MC38 cells
# Assay: FACS detection of antigen-binding capacity on PD-L1 positive MC38 cells (FITC secondary antibody)
# Procedure: MC38 cells were treated with anti-PD-L1 antibody, anti-PD-L1 THIOMAB and ADC HE-S2, and then stained with FITC-labeled goat anti-human secondary antibody; the FITC signal intensity on MC38 surfaces was analyzed by FACS technique detection. A. The histograms of different colors represent, from top to bottom, the fluorescence signals measured for the negative control (NC) group, the secondary antibody group, the anti-PD-L1 antibody group, the anti-PD-L1 THIOMAB group, and the ADC HE-S2 group, respectively. B. Mean fluorescence intensity (MFI) measured after treatment with different antibody-based drugs on MC38. NC group: the negative control only added with the isotype antibody, with no secondary antibody added for staining; secondary antibody group: the control group added with the isotype antibody and stained with fluorescent secondary antibody. […]
# With PD-L1 positive MC38 as a platform, the inventors verified whether ADC HE-S2 and the gene-modified anti-PD-L1 THIOMAB retained the original antibody-antigen binding capacity by using a fluorescence activated cell sorting (FACS) technique. […] The stained MC38 cells were analyzed on a BD FACSAria™ III flow cytometer, and the strength of FITC fluorescence signals on MC38 cells treated with different antibody-based drugs was detected and compared, so as to characterize the affinity of ADC, THIOMAB and antibodies to PD-L1.
# T1 sequence (Q9EP73 19-290): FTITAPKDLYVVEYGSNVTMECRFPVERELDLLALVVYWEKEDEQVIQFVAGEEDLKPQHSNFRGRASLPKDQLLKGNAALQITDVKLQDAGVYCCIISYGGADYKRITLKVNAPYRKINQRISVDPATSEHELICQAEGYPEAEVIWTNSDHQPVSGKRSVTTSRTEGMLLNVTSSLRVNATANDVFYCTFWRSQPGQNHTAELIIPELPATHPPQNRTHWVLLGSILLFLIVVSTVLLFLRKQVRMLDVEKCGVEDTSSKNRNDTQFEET
substance,measurement,value
"anti-PD-L1 THIOMAB: mutant avelumab, light chain V205C (SEQ ID NO: 9), heavy chain SEQ ID NO: 4; pHrodo red labeled in internalization tests",MFI compared with the natural anti-PD-L1 antibody (Student's t test),no significant difference
